Results taken from patent publication US20220242973A1 (Molecular Partners, published 2022).

T1: Recombinant human FAP (fibroblast activation protein) (human, UniProt Q12884 26-760)
T1 sequence (looked up): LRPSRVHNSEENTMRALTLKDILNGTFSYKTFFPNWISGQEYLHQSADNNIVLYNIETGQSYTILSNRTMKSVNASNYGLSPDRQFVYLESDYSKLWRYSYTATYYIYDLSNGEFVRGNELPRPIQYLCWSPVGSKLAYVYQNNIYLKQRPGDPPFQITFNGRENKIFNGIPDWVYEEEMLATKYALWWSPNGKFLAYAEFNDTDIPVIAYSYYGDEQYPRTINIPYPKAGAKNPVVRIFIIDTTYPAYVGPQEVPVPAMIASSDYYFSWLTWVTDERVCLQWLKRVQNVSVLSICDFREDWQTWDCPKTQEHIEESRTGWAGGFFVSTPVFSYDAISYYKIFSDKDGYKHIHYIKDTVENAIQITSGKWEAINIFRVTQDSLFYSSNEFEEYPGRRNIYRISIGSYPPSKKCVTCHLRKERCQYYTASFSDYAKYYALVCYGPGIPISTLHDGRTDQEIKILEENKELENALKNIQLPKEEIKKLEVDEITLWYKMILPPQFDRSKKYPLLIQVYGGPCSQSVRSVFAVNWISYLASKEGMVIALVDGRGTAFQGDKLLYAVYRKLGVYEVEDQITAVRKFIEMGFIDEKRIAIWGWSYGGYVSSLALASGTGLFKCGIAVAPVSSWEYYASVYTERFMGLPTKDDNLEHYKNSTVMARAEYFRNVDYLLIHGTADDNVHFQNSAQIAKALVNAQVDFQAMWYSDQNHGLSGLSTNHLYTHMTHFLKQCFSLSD

T2: Human FAP expressed on the cell surface (WI38, CHO-FAP1.9, U87MG cells) (human, UniProt Q12884 1-760)
T2 construct: whole, on cells; Endogenous on WI38 and U87MG cells; from a human FAP cDNA (OriGene) in CHO-FAP1.9 cells; also called hFAP; FAP+ cells
T2 sequence (looked up): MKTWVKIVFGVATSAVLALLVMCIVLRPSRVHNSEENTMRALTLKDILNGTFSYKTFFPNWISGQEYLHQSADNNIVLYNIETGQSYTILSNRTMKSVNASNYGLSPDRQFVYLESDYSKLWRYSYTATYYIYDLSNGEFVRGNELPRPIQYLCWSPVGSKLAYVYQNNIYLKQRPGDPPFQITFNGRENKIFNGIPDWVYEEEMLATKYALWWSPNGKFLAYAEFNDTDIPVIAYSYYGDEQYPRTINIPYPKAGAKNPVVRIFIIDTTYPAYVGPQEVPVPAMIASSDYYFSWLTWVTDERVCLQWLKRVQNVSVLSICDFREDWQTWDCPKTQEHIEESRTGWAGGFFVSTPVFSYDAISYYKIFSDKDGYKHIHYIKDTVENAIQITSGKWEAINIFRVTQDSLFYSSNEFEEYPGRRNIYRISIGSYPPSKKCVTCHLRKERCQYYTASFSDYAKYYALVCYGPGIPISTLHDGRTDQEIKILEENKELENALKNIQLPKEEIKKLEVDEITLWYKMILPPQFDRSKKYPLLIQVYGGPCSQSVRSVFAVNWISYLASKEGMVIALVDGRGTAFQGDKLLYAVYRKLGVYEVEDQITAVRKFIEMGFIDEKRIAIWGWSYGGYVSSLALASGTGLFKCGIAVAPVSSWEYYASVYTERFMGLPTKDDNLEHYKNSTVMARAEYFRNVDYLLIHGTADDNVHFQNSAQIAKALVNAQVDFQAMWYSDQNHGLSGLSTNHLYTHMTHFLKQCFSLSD


Key:
[1] = target: T1, Recombinant human FAP (fibroblast …); experiment: cell-based or functional assay
[2] = target: T2, Human FAP expressed on the cell surface …; experiment: FACS on FAP-expressing WI38 cells, Penta-His AF647 detection
Experimental: Using multi-well plates, 20,000 WI38 cells were added per well in 50 μl of PBS. 50 μl of appropriate dilutions (2× dilution steps) of ankyrin repeat protein was then added to the cells and incubated for 30 minutes on ice. After the ankyrin repeat protein-binding reaction, cells were washed twice with PBS. Direct immunofluorescent detection of the His-tagged ankyrin repeat proteins using Penta-His AF647 conjugate (QIAgen) and determination of live cells using LIVE/DEAD™ Fixable Green Dead Cell Stain Kit (ThermoFisher) were then performed together in one step. The Penta-His AF647 conjugate and the LIVE/DEAD™ Fixable Green dye were applied to the cells together in 1/200 (Penta-His) and 1/1000 (LID Fixable) final dilutions and incubated for 20-30 minutes on ice. After washing the cells with PBS, cells were re-suspended in 1× CellFix™ buffer (BD Biosciences) (10× stock was diluted 1/10 in water). The samples were incubated in CellFix™ buffer for 15-20 minutes at RT, then spun down at 400 g for 5 min. Supernatant was discarded and cells were re-suspended in 200 μl PBS and stored at 4° C. until acquisition and FACS analysis. Acquisition and FACS analysis, including the determination of median fluorescence intensity (MFI), were done within 5 days after staining using an AttuneNxT instrument. Binding curves were fitted by non-linear regression curve fitting using GraphPad Prism software (v 7.0.4).
EC₅₀ values were determined using standard procedures known to the person skilled in the art. […] Table 2 provides the EC₅₀ values of selected ankyrin repeat proteins as examples.

[3] = target: T1, Recombinant human FAP (fibroblast …); experiment: SPR (ProteOn), human FAP immobilized on GLC chip
Experimental: Briefly, human FAP was diluted in 10 mM Na-acetate pH 5.3 buffer and covalently immobilized on a GLC chip (BioRad) to a level of around 2000 resonance units (RU). The interaction of ankyrin repeat protein and hFAP was then measured by injecting 200 μl running buffer (PBS, pH 7.4 containing 0.005% Tween 20®) containing serial dilutions of ankyrin repeat proteins covering a concentration range between 30 nM and 0.5 nM (on-rate measurement), followed by a running buffer flow for at least 25 minutes at a constant flow rate of 100 μl/min (off-rate measurement). The regeneration was performed using 15 μl of 10 mM Glycine pH 2 followed by 15 μl of 124 mM H₃PO₄. The signals (i.e. resonance unit (RU) values) of the interspots and a reference injection (i.e. injection of running buffer only) were subtracted from the RU traces obtained after injection of ankyrin repeat protein (double-referencing). Based on the SPR traces obtained from the on-rate and off-rate measurements, the on- and off-rate of the corresponding ankyrin repeat protein—FAP interaction was determined.
Dissociation constants (KD) were calculated from the estimated on- and off-rates using standard procedures known to the person skilled in the art. […] Table 1 provides the KD values of some selected ankyrin repeat proteins as examples.

Binder	FAP activity (%) [1]	EC50 [2]	Kd [3]
DARPin® protein #14 (designed binder) MRGSHHHHHHGSYPYDVPDYAGSDLGKKLLEAARAGQDDEVRILLAAGADVNAKDYSGRTPLHLAALTGHLEIVKVLLKHGADVNASDDYGITPLHLDAFIGHLEIVEVLLKNGADVNAMDYQGRTPLHPAAYTGHLEIVEVLLKYGADVNAQDKFGKTAFDISIDNGNEDLAEILQKLN	86%	0.246 nM	0.007 nM
DARPin® protein #15 (designed binder) MRGSHHHHHHGSYPYDVPDYAGSDLGKKLLEAARAGQDDEVRILMANGADVNAFDAIGRTPLHLAALYGHLEIVEVLLKHVADVNATDEYGITPLHLAAFMGHLEIVEVLLKYGADVNAIDFDGRTPLHPAAYRGHLEIVEVLLKHGADVNAQDKFGKTAFDISIDNGNEDLAEILQKLN	93%	0.33 nM	< 0.01 nM
DARPin® protein #2 (designed binder) MRGSHHHHHHGSYPYDVPDYAGSDLGKKLLEAARAGQDDEVRILLAAGADINAKDKYGVTPLHLAAWAGHLEIVEVLLKAGADVNAKDQSGFTPLHLAAHRGHLEIVEVLLKAGADVNAKDYRGFTPLHLAAEDGHLEIVEVLLKAGADVNAQDKSGKTPADLAADAGHEDIAEVLQKLN	117%	5.26 nM	8.24 nM
DARPin® protein #21 (designed binder) MRGSHHHHHHGSYPYDVPDYAGSDLGQKLLNAAFIGQDDEVRILLAAGAGVNAKDRHGHTPLHVTAHHGHLEIVEVLLKAGTDVNAKDNQGNTPLHVAAEADHLEIVEVLLKAGADVNAQDAHGRTPADLAAQLGHEDIAEVLQKLN	108%	2.19 nM	0.885 nM
DARPin® protein #22 (designed binder) MRGSHHHHHHGSYPYDVPDYAGSDLGDKLLTAANYGQDDEVRILLAAGADVNAKDRFGHTPLHVAAHFGHLEIVEVLLKAGADVNAKDSLGHTPLHLAAEAGHLEIVEVLLKAGADVNAQDFHGITPADLAAHQGHEDIAEVLQKLN	100%	1.22 nM	3.4 nM
DARPin® protein #23 (designed binder) MRGSHHHHHHGSYPYDVPDYAGSDLGLKLLSAAQVGQDDEVRILLAAGADVNVKDQFGHTPLHVATHFGHLEIVEVLLKAGADVNAKDALGHTPLHLAAEAGHLEIVEVLLKAGADVNAQDAHGRTPADLAAQLGHEDIAEVLQKLN	100%	1.82 nM	2.78 nM
DARPin® protein #24 (designed binder) MRGSHHHHHHGSYPYDVPDYAGSDLGEKLLEAARRGQDDEVRELLKAGADVNAKDRYGITPLHLAAFLGHLEIVEVLLKDGADVNAKDEWGATPLHVAAYKGHLEIVEVLLKAGADVNAQDLYGKTPADLAAEQGHEDIEEVLQKLN	102%	4.49 nM	1.47 nM
DARPin® protein #7 (designed binder) MRGSHHHHHHGSYPYDVPDYAGSDLGKKLLEAARAGQDDEVRELLKAGADVNAKDEWGKTPLHLAAALGHLEIVEVLLKAGADVNAKDAWGATPLHVAAFAGHLEIVEVLLKAGADVNAKDTIGFTPLHLAAHSGHLEIVEVLLKAGADVNAQDKSGKTPADLAADAGHEDIVEVLQKLN	123%	1.45 nM	0.744 nM
DARPin® protein #27 (designed binder) MRGSHHHHHHGSYPYDVPDYAGSDLGKKLLEAARAGQDDEVRELLKAGADVNAKDEWDKTPLHYAAALGHLEIVEVLLKAGADVNAKDVWGATPLHIAAFAGHLEIVEVLLKAGADVNAKDTLGYTPLHLAATRGHLEIVEALLKAGADVNAQDKSGKTPADLAADVGHEDIAEVLQKLN	110%	0.664 nM	0.441 nM
DARPin® protein #28 (designed binder) MRGSHHHHHHGSYPYDVPDYAGSDLGKKLLEAARAGQDDEVRELLKAGADVNAKDEWGKTPLHYAAALGHLEIVEVLLKAGADVNAKDRWGATPLHIAAFAGHLEIVEVLLKAGADVNAKDEVGWTPLHLAARSGHLEIVEVLLKVGADVNAQDKSGKTPADLAADAGHEDIVEVLQKLN	103%	0.781 nM	0.15 nM
DARPin® protein #32 (designed binder) MRGSHHHHHHGSYPYDVPDYAGSDLGKKLLEAARAGQDDEVRELLKAGADVNAKDEWDKTPLHLAAALDHLEIVEVLLKAGADVNAKDQYGATPLHVAAFAGHLEIVEVLLKAGADVNAKDLFGWTPLHLAALRGHLEIVEVLLKAGADVNAQDKSGKTPADLAADAGHEDIVEVLQKLN	138%	0.918 nM	0.527 nM
DARPin® protein #29 (designed binder) MRGSHHHHHHGSYPYDVPDYAGSDLGKKLLEAARAGQDDEVRELLKAGADVNAKDTIGRTPLHIAARYGHLEIVEVLLKAGADVNAKDVYDITPLHLAAFLGHLEIVEVLLKAGADVNAKDYEGTTPLHVAAWHGHLEIVEVLLKAGADVNAQDKSGKTPADLAADAGHEDIAEVLQKLN	109%	1.13 nM	0.255 nM
DARPin® protein #3 (designed binder) MRGSHHHHHHGSYPYDVPDYAGSDMGKKLLEAARAGQDDEVRILMANGADVNAFDQVGRTPLHLDALAGHLEIVEVLLKHGADVNAADMFGITPLHLAAFIGHLEIVEVLLKHGADVNAYDLDGRTPLHPAAYHGHLEIVEVLLKNGADVNAQDKFGKTAFDISIDNGNEDLAEILQKLN	116%	5.72 nM	5.43 nM
